{"source": "patent US7666989B2", "about": "(priority 2003, dated 2010)", "molecules": {"B1": {"name": "CPT: human recombinant circularly permuted TRAIL (CPT), which consists of 166 amino acid residues; SEQ ID No:2 (protein)", "chain": "TLSSPNSKNEKALGRKINSWESSRSGHSFLSNLHLRNGELVIHEKGFYYIYSQTYFRFQEEIKENTKNDKQMVQYIYKYTSYPDPILLMKSARNSCWSKDAEYGLYSIYQGGIFELKENDRIFVSVTNEHLIDMDHEASFFGAFLVGGGGGGVAAHITGTRGRSNT", "modifications": "Synthetically generated peptide"}}, "key": {"human brain glioma U251": {"test_system": "human brain glioma U251", "settings": "U251 xenograft, ten injections; for Body Weight (g) Start / Tumor volume (mm^3) Start: baseline; for Inhibition rate (%): by tumor weight", "source_text": "(§1) In this example, the animals used were BALB/c-nu nude mice, 6-8 weeks old. For each experiment, all animals were of the same sex.\n(§2) Tumor cell lines: human brain glioma U251, human lung cancer cell line NCI-H460, human colon cancer cell line COLO205 were inoculated from in vitro culture into nude mice subcutaneously, the tumors were subcultured and kept.\n(§3) Experimental Procedures: well-grown nude mice carrying well-grown tumors were selected and sacrificed by disjointing neck vertebra. The tumors were removed aseptically and were cut into pieces having a diameter of 2-3 mm by a scalpel. The pieces were inoculated into the axilla of nude mice subcutaneously by a needle. […] The length and width of tumors were measured by a vernier caliper. The animals were then grouped based their tumor sizes. Each group included seven to eight animals.\n(§4) The length, width of the tumor and the body weight of the mice were measured twice per week. The tumor volume (TV) and relative tumor volume (RTV) were calculated. A graph indicating the changes of tumor size was plotted. At the end of this experiment, the tumors were taken out and weighed after the mice were sacrificed, and the inhibition rates of the medicament on tumor growth were calculated.\n(§5) The formula for calculating tumor volume (TV) is: length×width^2÷2.\n(§6) The formula for calculating relative tumor volume (RTV) is: Vt/Vo (wherein Vo is the TV value measured when the administration is started, Vt is the TV value measured after that).\n(§7) T-test was used to determine the statistical difference of tumor weights, tumor volumes and RTV etc. between different groups of animal. The index used for evaluating the anti-tumor activity is the relative tumor growth rate T/C (%), the formula for which is: […]\n(§8) The evaluation standard for efficacy:\n(§9) T/C (%)>60 is ineffective;\n(§10) T/C (%)≦60 and P<0.05 after statistical analysis is effective.\nThe Carmustine (Renmin Pharmaceuticals, Amino Acid Inc. Tianjin, P. R. China) was used as the positive control, 40 mg/kg, administered by intraperitoneal injection for once. CPT was given to four groups at the doses of 0.6 mg/kg, 1.7 mg/kg, 5.0 mg/kg, 15.0 mg/kg respectively, administered by intraperitoneal injection. The treatment included ten injections."}, "[1]": {"test_system": "COLO 205 (human colon cancer cell)", "experiment": "MTT cytotoxicity, COLO 205", "format": "cell-based", "settings": "4 days", "source_text": "Reagents: RPMI1640 is from GIBCO; MTT is from Bebco. Fetal bovine serum is purchased from Hangzhou SiJiQing Bioengineering Material Co. Ltd. (P. R. China).\nCell lines: COLO 205 (human colon cancer cell), NCI-H460 (human lung cancer cell), RPMI 8226 (human multiple myeloma cell), U251 (human brain glioma cell) are from ATCC, USA. HL-60 (human promyelocytic leukemia cell), MDA-MB-231, MDA-MB-435 (human breast cancer cell), SCLC (human small-cell lung cancer cell), H125 (human lung cancer cell) and PC-3 (human […] cancer cell).\nThe well-grown tumor cells were collected to prepare a cell suspension (1×10^4/ml) with RPMI 1640 medium containing 10% fetal bovine serum. The cell suspension was inoculated into a 96-well plate, 100 μL (containing 1000 tumor cells) per well. The plate was cultured in a 5% CO2 incubator at 37° C. for 24 hours, followed by addition of medicament.\nA blank control and a positive control using 5-fluorouracil or adriamycin are employed in the experiment. […]\nThe supernatant was discarded. […] After gently shaking, the OD values were measured by a BIORAD 550 enzyme analyzer, with the detection wavelength being 540 nm and the reference wavelength being 450 nm.\nDose-response curves were generated by plotting with the cell inhibition rates and different concentrations of medicament, and the half inhibitory concentrations (IC50) were calculated."}, "[2]": {"test_system": "human colon cancer COLO 205", "settings": "COLO 205 xenograft; for Body Weight (g) End / RTV / Tumor volume (mm^3) End / Tumor weight / Body Weight (g) Start / Tumor volume (mm^3) Start / Inhibition rate (%): 15 injections; for Body Weight (g) Start / Tumor volume (mm^3) Start: baseline; for Inhibition rate (%): by tumor weight", "source_text": "as §1, §2, §3, §4, §5, §6, §7, §8, §9, §10\nInjectable hydroxycamptothecin (trade name: Xi Su, Wuhan Lishizhen Pharmaceuticals Inc., Huangshi Lishizhen Pharmaceuticals Group, P. R. China) was used as positive control, administered by intraperitoneal injection at the dose of 1 mg/kg, once per day. The administration was terminated after 15 consecutive days of administration. […] A single administration of 80 mg/kg hydroxycamptothecin was further given after two weeks. CPT was given to three treatment groups at the doses of 1.7 mg/kg, 5.0 mg/kg, 15.0 mg/kg respectively by intraperitoneal injection, once per day. The treatment contained a total of 15 injections."}, "[3]": {"settings": "CPT 1.7 mg/kg i.p. once per day"}, "[4]": {"settings": "CPT 5.0 mg/kg i.p. once per day"}}, "note": "Where “and” joins values, the source holds several entries; their conditions need not be identical. Equal values may be shown once. Read-outs that look alike come from different tables or passages of the source. Marks after values point to notes of the source that are not given here.", "data": [{"molecule": "B1", "values": [{"measurement": "Body Weight (g) End", "setting": "human brain glioma U251; CPT 0.6 mg/kg i.p.", "result": "21.0 ± 1.4", "unit": "g"}, {"measurement": "RTV", "setting": "human brain glioma U251; CPT 0.6 mg/kg i.p.", "result": "2.77 ± 1.97"}, {"measurement": "T/C (%)", "setting": "human brain glioma U251; CPT 0.6 mg/kg i.p.", "result": 82.9, "unit": "%"}, {"measurement": "Tumor volume (mm^3) End", "setting": "human brain glioma U251; CPT 0.6 mg/kg i.p.", "result": "961 ± 582", "unit": "mm^3"}, {"measurement": "Tumor weight", "setting": "human brain glioma U251; CPT 0.6 mg/kg i.p.", "result": "0.89 ± 0.49", "unit": "g"}, {"measurement": "Body Weight (g) Start", "setting": "human brain glioma U251; CPT 0.6 mg/kg i.p.", "result": "21.0 ± 0.8", "unit": "g"}, {"measurement": "Tumor volume (mm^3) Start", "setting": "human brain glioma U251; CPT 0.6 mg/kg i.p.", "result": "141 ± 40", "unit": "mm^3"}, {"measurement": "Inhibition rate (%)", "setting": "human brain glioma U251; CPT 0.6 mg/kg i.p.", "result": 30.5, "unit": "%"}, {"measurement": "Body Weight (g) End", "setting": "human brain glioma U251; CPT 1.7 mg/kg i.p.", "result": "21.5 ± 2.0", "unit": "g"}, {"measurement": "RTV", "setting": "human brain glioma U251; CPT 1.7 mg/kg i.p.", "result": "2.12 ± 1.29"}, {"measurement": "T/C (%)", "setting": "human brain glioma U251; CPT 1.7 mg/kg i.p.", "result": 63.5, "unit": "%"}, {"measurement": "Tumor volume (mm^3) End", "setting": "human brain glioma U251; CPT 1.7 mg/kg i.p.", "result": "588 ± 215** mm^3"}, {"measurement": "Tumor weight", "setting": "human brain glioma U251; CPT 1.7 mg/kg i.p.", "result": "0.71 ± 0.22", "unit": "g"}, {"measurement": "Body Weight (g) Start", "setting": "human brain glioma U251; CPT 1.7 mg/kg i.p.", "result": "21.6 ± 1.2", "unit": "g"}, {"measurement": "Tumor volume (mm^3) Start", "setting": "human brain glioma U251; CPT 1.7 mg/kg i.p.", "result": "131 ± 34", "unit": "mm^3"}, {"measurement": "Inhibition rate (%)", "setting": "human brain glioma U251; CPT 1.7 mg/kg i.p.", "result": 44.5, "unit": "%"}, {"measurement": "Body Weight (g) End", "setting": "human brain glioma U251; CPT 5.0 mg/kg i.p.", "result": "21.9 ± 3.2", "unit": "g"}, {"measurement": "RTV", "setting": "human brain glioma U251; CPT 5.0 mg/kg i.p.", "result": "1.32 ± 1.24"}, {"measurement": "T/C (%)", "setting": "human brain glioma U251; CPT 5.0 mg/kg i.p.", "result": 39.5, "unit": "%"}, {"measurement": "Tumor volume (mm^3) End", "setting": "human brain glioma U251; CPT 5.0 mg/kg i.p.", "result": "510 ± 333** mm^3"}, {"measurement": "Tumor weight", "setting": "human brain glioma U251; CPT 5.0 mg/kg i.p.", "result": "0.45 ± 0.26", "unit": "g"}, {"measurement": "Body Weight (g) Start", "setting": "human brain glioma U251; CPT 5.0 mg/kg i.p.", "result": "22.0 ± 1.1", "unit": "g"}, {"measurement": "Tumor volume (mm^3) Start", "setting": "human brain glioma U251; CPT 5.0 mg/kg i.p.", "result": "133 ± 57", "unit": "mm^3"}, {"measurement": "Inhibition rate (%)", "setting": "human brain glioma U251; CPT 5.0 mg/kg i.p.", "result": 64.8, "unit": "%"}, {"measurement": "Body Weight (g) End", "setting": "human brain glioma U251; CPT 15 mg/kg i.p.", "result": "21.1 ± 1.7", "unit": "g"}, {"measurement": "RTV", "setting": "human brain glioma U251; CPT 15 mg/kg i.p.", "result": "0.71 ± 0.57"}, {"measurement": "Tumor volume (mm^3) End", "setting": "human brain glioma U251; CPT 15 mg/kg i.p.", "result": "261 ± 238** mm^3"}, {"measurement": "Tumor weight", "setting": "human brain glioma U251; CPT 15 mg/kg i.p.", "result": "0.16 ± 0.15", "unit": "g"}, {"measurement": "Body Weight (g) Start", "setting": "human brain glioma U251; CPT 15 mg/kg i.p.", "result": "21.6 ± 1.1", "unit": "g"}, {"measurement": "Tumor volume (mm^3) Start", "setting": "human brain glioma U251; CPT 15 mg/kg i.p.", "result": "148 ± 58", "unit": "mm^3"}, {"measurement": "Inhibition rate (%)", "setting": "human brain glioma U251; CPT 15 mg/kg i.p.", "result": "87.5% and 87.7%"}, {"measurement": "IC50", "setting": "[1]", "result": "6 ± 0", "unit": "ng/mL"}, {"measurement": "Body Weight (g) End", "setting": "[2]; [3]", "result": "20.6 ± 3.0", "unit": "g"}, {"measurement": "RTV", "setting": "[2]; [3]", "result": "1.62 ± 0.62"}, {"measurement": "Tumor volume (mm^3) End", "setting": "[2]; [3]", "result": "582 ± 408** mm^3"}, {"measurement": "Tumor weight", "setting": "[2]; [3]", "result": "0.40 ± 0.33", "unit": "g"}, {"measurement": "Body Weight (g) Start", "setting": "[2]; [3]", "result": "20.6 ± 1.1", "unit": "g"}, {"measurement": "Tumor volume (mm^3) Start", "setting": "[2]; [3]", "result": "205 ± 47", "unit": "mm^3"}, {"measurement": "Inhibition rate (%)", "setting": "[2]; [3]", "result": 79.6, "unit": "%"}, {"measurement": "Body Weight (g) End", "setting": "[2]; [4]", "result": "21.4 ± 1.2", "unit": "g"}, {"measurement": "RTV", "setting": "[2]; [4]", "result": "0.91 ± 0.35"}, {"measurement": "Tumor volume (mm^3) End", "setting": "[2]; [4]", "result": "314 ± 175** mm^3"}, {"measurement": "Tumor weight", "setting": "[2]; [4]", "result": "0.18 ± 0.15", "unit": "g"}, {"measurement": "Body Weight (g) Start", "setting": "[2]; [4]", "result": "20.2 ± 0.8", "unit": "g"}, {"measurement": "Tumor volume (mm^3) Start", "setting": "[2]; [4]", "result": "180 ± 63", "unit": "mm^3"}, {"measurement": "Inhibition rate (%)", "setting": "[2]; [4]", "result": "90.8% and 90.9%"}, {"measurement": "Body Weight (g) End", "setting": "[2]; CPT 15 mg/kg i.p. once per day", "result": "21.1 ± 2.4", "unit": "g"}, {"measurement": "RTV", "setting": "[2]; CPT 15 mg/kg i.p. once per day", "result": "0.33 ± 0.27"}, {"measurement": "Tumor volume (mm^3) End", "setting": "[2]; CPT 15 mg/kg i.p. once per day", "result": "52 ± 53** mm^3"}, {"measurement": "Tumor weight", "setting": "[2]; CPT 15 mg/kg i.p. once per day", "result": "0.05 ± 0.05", "unit": "g"}, {"measurement": "Body Weight (g) Start", "setting": "[2]; CPT 15 mg/kg i.p. once per day", "result": "20.0 ± 0.5", "unit": "g"}, {"measurement": "Tumor volume (mm^3) Start", "setting": "[2]; CPT 15 mg/kg i.p. once per day", "result": "192 ± 81", "unit": "mm^3"}, {"measurement": "Inhibition rate (%)", "setting": "[2]; CPT 15 mg/kg i.p. once per day", "result": "97.4% and 97.8%"}, {"measurement": "fraction of animals in which no tumor was found", "setting": "[2]; high-dose CPT (15 mg/kg/day, 15 injections), four weeks after the administration was stopped", "result": "⅓"}]}]}
